According to IntAct's records for PubMed 20861839:

B1: Symplekin (Homo sapiens), Q92797 (parent)
chain: MASGSGDSVTRRSVASQFFTQEEGPGIDGMTTSERVVDLLNQAALITNDSKITVLKQVQELIINKDPTLLDNFLDEIIAFQADKSIEVRKFVIGFIEEACKRDIELLLKLIANLNMLLRDENVNVVKKAILTMTQLYKVALQWMVKSRVISELQEACWDMVSAMAGDIILLLDSDNDGIRTHAIKFVEGLIVTLSPRMADSEIPRRQEHDISLDRIPRDHPYIQYNVLWEEGKAALEQLLKFMVHPAISSINLTTALGSLANIARQRPMFMSEVIQAYETLHANLPPTLAKSQVSSVRKNLKLHLLSVLKHPASLEFQAQITTLLVDLGTPQAEIARNMPSSKDTRKRPRDDSDSTLKKMKLEPNLGEDDEDKDLEPGPSGTSKASAQISGQSDTDITAEFLQPLLTPDNVANLVLISMVYLPEAMPASFQAIYTPVESAGTEAQIKHLARLMATQMTAAGLGPGVEQTKQCKEEPKEEKVVKTESVLIKRRLSAQGQAISVVGSLSSMSPLEEEAPQAKRRPEPIIPVTQPRLAGAGGRKKIFRLSDVLKPLTDAQVEAMKLGAVKRILRAEKAVACSGAAQVRIKILASLVTQFNSGLKAEVLSFILEDVRARLDLAFAWLYQEYNAYLAAGASGSLDKYEDCLIRLLSGLQEKPDQKDGIFTKVVLEAPLITESALEVVRKYCEDESRTYLGMSTLRDLIFKRPSRQFQYLHVLLDLSSHEKDKVRSQALLFIKRMYEKEQLREYVEKFALNYLQLLVHPNPPSVLFGADKDTEVAAPWTEETVKQCLYLYLALLPQNHKLIHELAAVYTEAIADIKRTVLRVIEQPIRGMGMNSPELLLLVENCPKGAETLVTRCLHSLTDKVPPSPELVKRVRDLYHKRLPDVRFLIPVLNGLEKKEVIQALPKLIKLNPIVVKEVFNRLLGTQHGEGNSALSPLNPGELLIALHNIDSVKCDMKSIIKATNLCFAERNVYTSEVLAVVMQQLMEQSPLPMLLMRTVIQSLTMYPRLGGFVMNILSRLIMKQVWKYPKVWEGFIKCCQRTKPQSFQVILQLPPQQLGAVFDKCPELREPLLAHVRSFTPHQQAHIPNSIMTILEASGKQEPEAKEAPAGPLEEDDLEPLTLAPAPAPRPPQDLIGLRLAQEKALKRQLEEEQKLKPGGVGAPSSSSPSPSPSARPGPPPSEEAMDFREEGPECETPGIFISMDDDSGLTEAALLDSSLEGPLPKETAAGGLTLKEERSPQTLAPVGEDAMKTPSPAAEDAREPEAKGNS
B2: RNA polymerase II subunit A C-terminal domain phosphatase SSU72 (Homo sapiens), Q9NP77-1 (parent)
chain: MPSSPLRVAVVCSSNQNRSMEAHNILSKRGFSVRSFGTGTHVKLPGPAPDKPNVYDFKTTYDQMYNDLLRKDKELYTQNGILHMLDRNKRIKPRPERFQNCKDLFDLILTCEERVYDQVVEDLNSREQETCQPVHVVNVDIQDNHEEATLGAFLICELCQCIQHTEDMENEIDELLQEFEEKSGRTFLHTVCFY
partner: B1 chain

Variants of: B1
Settings: with SSU72, Q9NP77-1

Row | effect of a mutation on the interaction | Variant
1 | disrupting interaction | K185A

Variants of: B2
Settings: with sympk_human SYMPK

Row | effect of a mutation on the interaction | Variant
2 | disrupting interaction | MPSSPLRVAVVCSSNQNRSMEAHNILSKRGFSVRSFGTGTHVKLPGPAPDKPNVYDFKTTYDQMYNDLLRKDKELYTQNGILHMLDRNKRIKPRPERFQNCKDLFDLILTCEERVYDQVVEDLNSREQETCQPVHVVNVDIQDNHEEATLGAFLICELCQCIQHTEDMENEIDELLQEFEEKSGRTFLHAACAY [T190A;V191A;F193A]
